Experimental data reported in paper PMC5934295 (Neuron, 2018).

B1: mouse CALHM1-FLAG (natural protein, UniProt D3Z291 1-348, looked up)
chain: MDKFRMIFQFLQSNQESFMNGICGIMALASAQMYSAFDFNCPCLPGYNVVYSLGILLTPPLVLFLLGLVMNNNISMLAEEWKRPAGRRAKDPAVLRYMFCSMAQRALIAPVVWVAVTLLDGKCFLCAFCTAVPVATLGNGSLVPGLPAPELARLLARVPCPEIYDGNWLLAREVAVRYLRCISQALGWSFVLLTTLLAFVVRSVRPCFTQVAFLKSKYWSHYIDIERKLFDETCTEHAKAFAKVCIQQFFEAMNHDLELGHTHGVLATATATATATEAVQSPSDRTEEEREKLRGITDQGTMNRLLTSWHKCKPPLRLGQEAPLMSNGWAGGEPRPPRKEVATYFSKV
B2: mouse CALHM3-GFP (natural protein, UniProt J3QMI4 1-347, looked up)
chain: MDRFRMLFQHLQSSSESVMNGICLLLAAVTVKIYSSLDFNCPCLERYNALYGLGLLLTPPLALFLCGLLVNRQSVLMVEEWRRPAGHRRKDLGIIRYMCSSVLQRALAAPLVWILLALLDGKCFVCAFSNSVDPEKFLDFANMTPRQVQLFLAKVPCKEDELVKNSPARKAVSRYLRCLSQAIGWSITLLVIVVAFLARCLRPCFDQTVFLQRRYWSNYMDLEQKLFDETCCEHARDFAHRCVLHFFANMQSELRALGLRRDPAGGIPESQESSEPPELREDRDSGNGKAHLRAISSREQVDQLLSTWYSSKPPLDLAASPRRWGPGLNHRAPIAAPGTKLCHQLNV
B3: CALHM3-mCherry (natural protein, mouse, UniProt J3QMI4 1-347, looked up)
chain: B2 chain

Experiments:
[1] = biological target: the molecule itself; test: native gel or EMSA
[2] = biological target: B1; test: native gel or EMSA
[3] = biological target: the molecule itself; test: single-molecule photobleaching

Binder: B1
- stoichiometry N [1]: ~6

Binder: B2
- stoichiometry N [2]: ≥ 1 CALHM3 subunit per channel

Binder: B3
- stoichiometry N [3]: 6
